According to article PMC3836970:

Experiments:
[1] = biological target: Streptomyces phage φBT1 integrase (Streptomyces phage φBT1); assay: cross-linking; purified proteins, alone or mixed, incubated with or without dimethyl suberimidate (DMS), analysed by SDS-PAGE
[2] = biological target: Gp3 of Streptomyces phage φBT1 (recombination directionality factor, excisionase) (Streptomyces phage φBT1); assay: as above
[3] = biological target: Streptomyces phage φBT1 integrase (Streptomyces phage φBT1)

Streptomyces phage φBT1 integrase (enzyme)
stoichiometry N [1]: 2

Gp3 of Streptomyces phage φBT1 (recombination directionality factor, excisionase) (natural protein)
stoichiometry N [2]: 2 | quantitative in vitro recombination (blue-white screen, white colonies): excision between attL and attR with integrase and Gp3 [3]: 89% | quantitative in vitro recombination (blue-white screen, white colonies): integration between attB and attP in the presence of Gp3 (more than 90% without Gp3) [3]: 2%
